Here are results for two molecules from paper PMC3348880, “MSMEG_2731, an Uncharacterized Nucleic Acid Binding Protein from Mycobacterium smegmatis, Physically Interacts with RPS1” (PLoS ONE, 2012).

One may read the stoichiometry N as a count of units in the complex or per binding partner.

Series [1] deals with T1, 30S ribosomal protein S1 (RPS1) (Mycobacterium smegmatis, UniProt A0QYY6 1-479).
T1 sequence: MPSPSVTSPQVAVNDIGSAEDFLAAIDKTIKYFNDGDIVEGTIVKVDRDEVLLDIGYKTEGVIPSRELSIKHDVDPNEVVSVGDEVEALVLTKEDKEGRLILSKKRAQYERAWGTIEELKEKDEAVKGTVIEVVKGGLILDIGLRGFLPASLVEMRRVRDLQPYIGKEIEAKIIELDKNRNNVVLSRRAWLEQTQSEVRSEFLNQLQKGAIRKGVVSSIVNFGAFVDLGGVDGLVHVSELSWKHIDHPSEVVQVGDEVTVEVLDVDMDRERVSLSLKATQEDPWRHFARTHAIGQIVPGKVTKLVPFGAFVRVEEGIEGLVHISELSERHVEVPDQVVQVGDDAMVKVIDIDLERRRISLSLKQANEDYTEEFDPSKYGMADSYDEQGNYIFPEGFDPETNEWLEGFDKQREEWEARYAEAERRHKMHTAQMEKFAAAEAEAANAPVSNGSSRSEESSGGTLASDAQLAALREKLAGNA
Description: SPR; 2.5 uM RPS1; fast association, complete dissociation; SPR (Biacore T100, SA chip): 25 mM Tris-HCl pH 7.4, 150 mM NaCl, 0.005% Tween 20, 25 C, 30 ul/min. The conditions noted are these: protein: recombinant; Methods name pET28a or pGEX-6P-1; label: 5' biotin (immobilized on SA chip); single strand. A general note: Surface plasmon resonance follows binding to a sensor surface in real time, without labels.

The target in series [2] is T2, MSMEG_2731;30S ribosomal protein S1 (RPS1) (Mycobacterium smegmatis;Mycobacterium …, UniProt A0QVX6;A0QYY6 1-454;1-479, |).
T2 sequence 1: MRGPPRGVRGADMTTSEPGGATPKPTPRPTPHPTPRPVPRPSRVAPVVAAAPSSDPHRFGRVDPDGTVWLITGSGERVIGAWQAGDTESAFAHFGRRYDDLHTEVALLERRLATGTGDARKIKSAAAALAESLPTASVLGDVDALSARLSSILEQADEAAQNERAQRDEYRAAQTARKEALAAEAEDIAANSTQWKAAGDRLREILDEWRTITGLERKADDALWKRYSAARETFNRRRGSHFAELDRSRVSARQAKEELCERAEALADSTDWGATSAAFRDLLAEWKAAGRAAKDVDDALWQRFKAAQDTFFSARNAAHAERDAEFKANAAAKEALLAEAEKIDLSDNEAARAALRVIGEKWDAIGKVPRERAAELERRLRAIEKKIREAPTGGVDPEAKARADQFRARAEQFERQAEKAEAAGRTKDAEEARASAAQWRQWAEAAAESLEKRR
T2 sequence 2: T1 sequence
Nature of the series: SPR; 2.5 uM RPS1 with 1.25, 2.5 or 5 uM MSMEG_2731; maximum response at 1:1; kinetics like RPS1 alone; SPR (Biacore T100, SA chip): 25 mM Tris-HCl pH 7.4, 150 mM NaCl, 0.005% Tween 20, 25 C, 30 ul/min. The conditions noted are these: protein: recombinant;recombinant; Methods name pET28a or pGEX-6P-1; copies: 1;1; label: 5' biotin (immobilized on SA chip); single strand.

Series [3] deals with T3, purified recombinant RPS1 (M. smegmatis, UniProt A0QYY6 1-479).
T3 construct: 30S ribosomal protein S1 (RPS1) of Mycobacterium smegmatis, gene amplified from M. smegmatis genomic DNA; Cloned into pET28a or pGEX-6P-1; also called purified RPS1; ribosomal protein S1; source: E. coli BL21 (DE3), purified
T3 sequence (looked up): T1 sequence
Description: SPR; Biacore T100, 25°C; mixtures of 2.5 μM RPS1 with 1.25, 2.5 or 5 μM MSMEG_2731 passed over RNA immobilised on an SA chip (100 RU); 25 mM Tris-HCl pH 7.4, 150 mM NaCl, 0.005% Tween 20. The conditions noted are these: both partners purified.

B1: RNA 25 nt (ssRNA)
RNA: CACGUAUCUCGAGGAGCGGAUAUGA
modifications: 5' biotin
Consider B1, for which the binding result in series [1] and in series [2] was “binds” each time.

B2: MSMEG_2731, N-terminal His-tagged recombinant protein (natural protein, M. smegmatis, UniProt A0QVX6 1-454, looked up)
chain: T2 sequence 1
notes: MSMEG_2731, conserved hypothetical alanine and arginine rich protein of Mycobacterium smegmatis, 454 amino acids, three tandem repeats of DUF349; The protein tends to degrade at its N-terminus in vitro; also called full-length MSMEG_2731; recombinant MSMEG_2731; source: E. coli BL21 (DE3), pET28a, purified (Ni-NTA, gel filtration)
As for B2, the “stoichiometry N” value in series [3] was found to be 1.
